{"source": "paper PMC9596850", "about": "“Tonsillar Microbiome‐Derived Lantibiotics Induce Structural Changes of IL‐6 and IL‐21 Receptors and Modulate Host Immunity” (Advanced Science, 2022)", "conditions_in_all_cases": "both partners purified", "key": {"[1]": {"biological_target": "murine IL-21 (mouse, UniProt Q9ES17 18-146)", "experiment": "SPR; Biacore 8K; receptor immobilised on a CM5 chip by amine coupling, 25 °C, PBS-P running buffer, analytes with 5% DMSO; steady state affinity model"}, "[2]": {"biological_target": "T1, murine IL-6 receptor subunit alpha (mouse, UniProt P22272 20-364)", "T1 construct": "also called mIL-6Rα; IL-6Rα; source: bought: abcam", "T1 sequence (looked up)": "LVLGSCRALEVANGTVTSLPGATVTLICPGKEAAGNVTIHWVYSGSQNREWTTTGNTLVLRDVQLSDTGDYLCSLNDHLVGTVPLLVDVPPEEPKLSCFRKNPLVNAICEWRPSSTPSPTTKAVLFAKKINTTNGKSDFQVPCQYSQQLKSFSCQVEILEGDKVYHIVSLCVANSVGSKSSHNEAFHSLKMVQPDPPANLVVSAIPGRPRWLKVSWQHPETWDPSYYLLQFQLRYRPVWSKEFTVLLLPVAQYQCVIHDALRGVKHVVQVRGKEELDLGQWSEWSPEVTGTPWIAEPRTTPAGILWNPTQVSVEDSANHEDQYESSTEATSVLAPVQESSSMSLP", "experiment": "SPR; Biacore 8K; receptor immobilised on a CM5 chip by amine coupling, 25 °C, PBS-P running buffer, analyte with 5% DMSO; 1:1 binding model"}, "[3]": {"biological_target": "T2, recombinant mouse IL-6 receptor subunit alpha protein with the Fc region of mouse IgG2a (mouse, UniProt P22272 20-364)", "T2 construct": "also called Fc-IL-6Rα; IL-6Rα; source: bought: abcam", "T2 sequence (looked up)": "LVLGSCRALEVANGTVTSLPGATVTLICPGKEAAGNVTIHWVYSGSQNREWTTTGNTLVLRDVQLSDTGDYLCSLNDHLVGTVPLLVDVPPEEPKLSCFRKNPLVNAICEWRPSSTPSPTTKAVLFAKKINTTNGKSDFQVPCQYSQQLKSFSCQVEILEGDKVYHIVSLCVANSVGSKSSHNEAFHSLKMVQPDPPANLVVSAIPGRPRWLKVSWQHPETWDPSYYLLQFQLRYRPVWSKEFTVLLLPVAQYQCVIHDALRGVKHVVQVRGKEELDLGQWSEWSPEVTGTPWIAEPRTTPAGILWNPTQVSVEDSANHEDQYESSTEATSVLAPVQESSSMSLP", "experiment": "SPR; Biacore 8K; receptor immobilised on CM5 chip by amine coupling, 25 °C, PBS-P running buffer; analytes with 5% DMSO injected serially; steady-state affinity model"}, "[4]": {"biological_target": "T3, mouse IL-21 receptor protein with the Fc region of human IgG1 (mouse, UniProt Q9JHX3 20-237)", "T3 construct": "also called IL-21R-Fc; murine IL-21R; source: bought: Sino Biological", "experiment": "SPR; Biacore 8K; receptor immobilised on CM5 chip by amine coupling, 25 °C, PBS-P running buffer; analytes with 5% DMSO injected serially; steady-state affinity model"}, "[5]": {"biological_target": "T4, murine IL-6 receptor subunit alpha (mouse, UniProt P22272 20-364)", "T4 construct": "also called IL-6Rα; mIL-6R; source: bought: abcam", "T4 sequence (looked up)": "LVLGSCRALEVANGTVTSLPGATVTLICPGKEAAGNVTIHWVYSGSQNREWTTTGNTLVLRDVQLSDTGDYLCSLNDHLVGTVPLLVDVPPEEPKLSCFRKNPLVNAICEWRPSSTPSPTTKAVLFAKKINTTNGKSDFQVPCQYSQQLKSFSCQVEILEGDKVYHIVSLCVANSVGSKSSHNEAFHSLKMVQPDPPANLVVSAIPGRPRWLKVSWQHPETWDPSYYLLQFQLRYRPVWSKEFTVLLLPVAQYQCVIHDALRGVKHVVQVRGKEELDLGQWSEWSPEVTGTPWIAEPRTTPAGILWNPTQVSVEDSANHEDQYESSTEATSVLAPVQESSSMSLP", "experiment": "SPR; Biacore 8K; murine IL-6Rα or IL-21R (20 nM) immobilised on a CM5 chip by amine coupling, 25 °C, PBS-P running buffer; analytes with 5% DMSO injected serially (salivaricin B and mutants 12.5-800 µM; mIL-6 0.003125-0.1 µM; mIL-21 0.625-5 nM); KD of salivaricins from a steady-state affinity model"}, "[6]": {"biological_target": "T5, murine IL-21 receptor (mouse, UniProt Q9JHX3 20-237)", "T5 construct": "also called mIL-21R; Mouse IL-21R; source: bought: Sino Biological", "experiment": "SPR; Biacore 8K; murine IL-6Rα or IL-21R (20 nM) immobilised on a CM5 chip by amine coupling, 25 °C, PBS-P running buffer; analytes with 5% DMSO injected serially (salivaricin B and mutants 12.5-800 µM; mIL-6 0.003125-0.1 µM; mIL-21 0.625-5 nM); KD of salivaricins from a steady-state affinity model"}, "[7]": {"biological_target": "T1, murine IL-6 receptor subunit alpha", "experiment": "SPR; Biacore 8K; receptor immobilised on a CM5 chip by amine coupling, 25 °C, PBS-P running buffer, analytes with 5% DMSO; steady state affinity model"}}, "data": [{"binder": "murine IL-21 receptor (receptor, also called mIL-21R; source: bought: Sino Biological) not shown", "values": [{"measurement": "Kd", "setting": "[1]", "result": 0.0349, "unit": "nM"}]}, {"binder": "murine IL-6 (ligand, mouse, UniProt P08505 25-211, looked up, also called mIL-6) FPTSQVRRGDFTEDTTPNRPVYTTSQVGGLITHVLWEIVEMRKELCNGNSDCMNNDDALAENNLKLPEIQRNDGCYQTGYNQEICLLKISSGLLEYHSYLEYMKNNLKDNKKDKARVLQRDTETLIHIFNQEVKDLHKIVLPTPISNALLTDKLESQKEWLRTKTIQFILKSLEEFLKVTLRSTRQT", "values": [{"measurement": "Kd", "setting": "[2]", "result": 13.7, "unit": "nM"}]}, {"binder": "GGGVIQTISHECRMNSWQFLFTCCS (salivaricin B, lantibiotic peptide commonly synthesized by S. salivarius; Chemically synthesized; also called SalB; source: synthetic peptide (solid-phase, RoYo Biotech; HPLC, purity more than 96%))", "values": [{"measurement": "Kd", "setting": "[3]", "result": 160, "unit": "µM"}, {"measurement": "Kd", "setting": "[4]", "result": 10.1, "unit": "µM"}]}, {"binder": "GGGVIQTISHECRMNSWQFLFTCCS (salivaricin B, lantibiotic peptide commonly synthesized by Streptococcus salivarius; chemically synthesized; Molecular weight on the synthesis report is 2805.23; also called SalB; source: synthetic peptide (solid-phase synthesis, RoYo Biotech; HPLC purified, purity more than 96%))", "values": [{"measurement": "Kd", "setting": "[5]", "result": 354, "unit": "µM"}, {"measurement": "Kd", "setting": "[6]", "result": 12.6, "unit": "µM"}]}, {"binder": "KRGTGWFATITDDCPNSVFVCC (salivaricin A2, lantibiotic peptide commonly synthesized by Streptococcus salivarius; also called SalA2; source: synthetic peptide (solid-phase, RoYo Biotech), HPLC purified, purity more than 96%)", "note": "[salivaricin A2]", "values": [{"measurement": "Kd", "setting": "[7]", "result": 51.4, "unit": "µM"}]}]}
